{"source": "the DeepSol protein solubility set"}
{"assay": "soluble on expression in E. coli; label from the status in PepcDB or PDB records"}
{"sequence": "MSLNRIFDAHCHIIDPQFPLIANNGYLPDPFGVGDYLATVQPLGVQGGAVVSGSFQGFDQGYLLQALRLLGPGFVGVTQLPASVTDTELDTLNAAGVRALRFNLKRGGSEQLDQLEALAVRVRERAGWHSELYIDSRELAEIETRLLKLPAISIDHLGLSAEGLPVVLRLAERGVRVKACGFGRVDFPVREALRDIHAANPNALMFGTDLPSTRAPRPFQPDDIELLIDALGEGGARQALWDNAAEFYREGHHHHHH", "soluble on expression in E. coli": "not soluble"}
{"sequence": "MSLNRVFIVDDDTLTCNLLKTIVEPIFGNVEAFQHPRAFLTLSLNKQDIIILDLMMPDMDGIEVIRHLAEHKSPASLILISGYDSGVLHSAETLALSCGLNVINTFTKPINTEVLTCFLTSLSNRQAQRELVSFNNDKANQGKFDFIPTEQDLREAIDKKQLILYYQPQINMKTECLHGAEVLVRWLHPEFGLIYPDKFIALAEQTGLIEQLSEEVIHLAIKQSVHWQKLNRATRLSINISAQNITSLKLPEQLRMLVKKYEIDPSMIVLELTESALMDSEVTSLDIFTRFRLKGFQLSIDDFGTGYSSLSQLHKIPFTELKIDQSFVTNMKQEKESMAIVETCIMLAHKLNMEAVAEGIEDKETWDLLSAEGCDIAQGYYIARPMPADQFDKWQFNEGHHHHHH", "soluble on expression in E. coli": "soluble"}
{"sequence": "MSLNTIYEPSSICMIRTPLLSVEFFNLFLNTEQIKYSDLQLNAQMKESILTTTFNLYCTLQEINFDGDNKKVRDAKESLLKYLIRMSTRPTPFGLLSGINLGHFVNEPTRLKVGNSIQKYVKVDGEWLYKLVSYIESIDEYYQNLKVIWNSKAHIINDRIYLNEQSAIYLNNNKDTSFSIKNSELLVFIKTTVTNNNITFSNLAEKINQEFEINDITKVKVYIHNLVSKEIIYSTIRPPLSYSDNLNYILNKLSLHNDDFVKKIREIQKLILAYEKTEIGFGEELYKDIIHHMKALFKCKNYLQIDTKIDMINNYLHQDIATNISEAAYLLWLLSRNNIGFTDLKVLHNRFIEKYGFEQLVNIKDLISDITGFGTTIFQEEETDGNNIVMLKQKFLHALRNNDEIVINEKDVESLINDNEINHYHAPMSADVYAELYLGRFYNQYNELIVISPLTASFNAGATFGRFHHLIDTETLAKLEHEKGHYYQKMICDDNVEMISINNIPKYPRNHNVLTNHDSYEYSLNLGSSNSYSKYELTLDDIYVGATFNKLYLYSSQLNKRVIFESNNMYNFLKECNLYRLLREISMESVKCIEPMNDVSIDSFSYSPRIRYKNVILKPAYWKINEMVLPLPKNEEWDQQFLKYQEQFNIPNIVNLVYGDNKLLLNLSLANHRYLLMKEYKKHKRVRLVESFLPQSKNDHVYEIVTPIYKKSSYRGEGHHHHHH", "soluble on expression in E. coli": "not soluble"}
{"sequence": "MSLNTSRKERSVSTFSIVGYDPKTDELGIAVQSKFLGVGAIVPWAKAGVGAIATQSYANTSYGSKGLDLLARGKTAEETLALLINEDADRHLRQVGIVDAKGRAASFTGQGCYEWAGSMTGHCFAVQGNLLVSEETVKTMAQKFVQATGSLAERLLLTLEAGQCAGGDRRGKQSAALLIVKEKGGYGGFNDRLIDLRVDDHPEPIQELKRIFELQQLYFAKPKEQDQLPLTDDRISIIKSSLHSLGYLSLTQHWRDALQQFIATENLEGRMGTGTQTIDRVVFSFLQKKAKEEGHHHHHH", "soluble on expression in E. coli": "soluble"}
{"sequence": "MSLNVVKFGGSSLASAPQLQKVLQIVKEEPRRTFVVVSAPGKRTPQDIKVTDLLIQYYQRYLNNEEIESTISAIIRRYEDLFDELHLDKAVLADIAISIRQLATLPKENNAFLFDYFLASGEDNNAKVVASFFKQNGLDARYISPKELGLLVTPEPGNARILPKALEKISVYRETQQILVIPGFFGYTEAGEICTFSRGGSDITGSIVAAGVQADLYENFTDVDGIYVAHPGIIEQPQTIQELTYREMRELAYAGFAVLHDEALMPAYRANIPVVIKNTNNPHHPGTLITTSRKVKHAPVVGIASDQGFASIYISKYLMNRELGFGRRLLEVLEKLALSYEHMPSGIDDITIVLREDQLTTEIENRLMAQLQEVLAPDELRITHHLSMIMIVGEGMRQRIGVTAESTMALAKEKINLEMINQGSSEVSIMFGIKKEQEEKAIKALYRTFFHDEGHHHHHH", "soluble on expression in E. coli": "soluble"}
{"sequence": "MSLNWMELSIVVNHEVEYDVTEILESYGSNGVVIEDSNILEEQPVDKFGEIYDLNPEDYPEKGVRLKAYFNEFTYNENLKSNINYEILSLQQIDKTIYDYQEKLIAEVDWENEWKNYFHPFRASKQFTIVPSWESYVKENDNELCIELDPGMAFGTGDHPTTSMCLKAIETFVKPTDSVIDVGTGSGILSIASHLLGVQRIKALDIDEMAVNVAKENFKKNHCDDAIEAVPGNLLKNENEKFNIVIANILAHIIEEMIEDTYNTLIEDGYFITSGIIEEKYQDIESQMKRIGFKIISVEHDNGWVCIVGQKVSEGHHHHHH", "soluble on expression in E. coli": "soluble"}
{"sequence": "MSLNYQMITTDDALASLCEAVRAFPAIALDTEFVRTRTYYPQLGLIQLFDGEHLALIDPLGITDWSPLKAILRDPSITKFLHAGSEDLEVFLNVFGELPQPLIDTQILAAFCGRPMSWGFASMVEEYSGVTLGKSESRTDWLARPLTERQCEYAAADVWYLLPITAKLMVETEASGWLPAALDECRLMQMRRQEVVAPEDAWRDITNAWQLRTRQLACLQLLADWRLRKARERDLAVNFVVREEHLWSVARYMPGSLGELDSLGLSGSEIRFHGKTLLALVEKAQTLPEDALPQPMLNLMDMPGYRKAFKAIKSLITDVSETHKISAELLASRRQINQLLNWHWKLKPQNNLPELISGWRGELMAEALHNLLQEYPQEGGSHHHHHH", "soluble on expression in E. coli": "soluble"}
{"sequence": "MSLNYSNDIFEEDTFNPGNDNLFLKTASVGTGEYFILPRLCAHLAKNAPKFVLKISSLSEYLSLEYLLMSELDFAIGPGFVETGNNIIRELLFEEEAVCIMHKSHPLANQELTQDMYLQAEHVDIQFSYMGNENILYKALQGYHQRNIKVIVPNIISALEVVYHTNFITTVPRTLAVTFKDRYQIELHPFPFPKKTFLVNFYYHKRLSNHKPLQWVLDVIKKYCCVNHEGHHHHHH", "soluble on expression in E. coli": "not soluble"}
{"sequence": "MSLPCNKHPFYQQLEQQLDTTRTEGLYKNERVITSAQQANIAVADGSRVINFCANNYLGLANHPKLIAAAKAGMDSHGFGMASVRFICGTQDIHKELEHKLASFLGMEDAILYSSCFDANGGLFETLLGPEDAIISDALNHASIIDGVRLCKAKRYRYANNDMTELEAQLKQAKAEGARHIMIATDGVFSMDGVIANLKRVCDLADEYQALVMVDDSHAVGVIGANGRGTHEYCEVMDRVDIITGTLGKALGGASGGYTAGRKELVEWLRQRSRPYLFSNSLAPAIVAASIEVLSLLEEGGALRDRLWANARLFREKMSAAGFTLAGADHAIIPVMLGEAKLAQDFANALLKEGIYVTGFFFPVVPKGQARIRTQMSAGHTTEQVERAIEAFVRIGKQLNVIA", "soluble on expression in E. coli": "not soluble"}
{"sequence": "MSLPEKLPYLVELSPGRRNHFAYYNYHTYEDGSDSRDKPKLYRLQLSVTEVGTEKLDDNSIQLFGPGIQPHHCDLTNMDGVVTVTPRSMDAETYVEGQRISETTMLQSGMKVQFGASHVFKFVDPSQDHALAKRSVDGGLMVKGPRHKPGIVQETTFDLGGDIHSGTALPTSKSTTRLDSDRVSSASSTAERGMVKPMIRVEQQPDYRRQESRTQDASGPELILPASIEFRESSEDSFLSAIINYTNSSTVHFKLSPTYVLYMACRYVLSNQYRPDISPTERTHKVIAVVNKMVSMMEGVIQKQKNIAGALAFWMANASELLNFIKQDRDLSRITLDAQDVLAHLVQMAFKYLVHCLQSELNNYMPAFLDDPEENSLQRPKIDDVLHTLTGAMSLLRRCRVNAALTIQLFSQLFHFINMWLFNRLVTDPDSGLCSHYWGAIIRQQLGHIEAWAEKQGLELAADCHLSRIVQATTLLTMDKYAPDDIPNINSTCFKLNSLQLQALLQNYHCAPDEPFIPTDLIENVVTVAENTADELARSDGREVQLEEDPDLQLPFLLPEDGYSCDVVRNIPNGLQEFLDPLCQRGFCRLIPHTRSPGTWTIYFEGADYESHLLRENTELAQPLRKEPEIITVTLKKQNGMGLSIVAAKGAGQDKLGIYVKSVVKGGAADVDGRLAAGDQLLSVDGRSLVGLSQERAAELMTRTSSVVTLEVAKQGAIYHGLATLLNQPSPMMQREGHHHHHH", "soluble on expression in E. coli": "soluble"}
{"sequence": "MSLQAELVIKNGLVILETGEVITDVAVQGGKIVAIGQDLSGERVIDATGLVVSPGMVDAHVHITDPGGGYRDEWEGYVTGTAACAKGGVTTFMEMPLNQIPATVDKTSLEIKYKAGENKLKVDVGSFGGVVPTNLADGIQELDEGGVSGYKCFLGTCGDRSIEGDFQNVDDYSLYEGMKQVAKTGKVLAIHAENAPITDKLGAVAYQNGETTLAAYVATRPVFTEVEAIQKAILFAKETGCRIHICHVACQEGVEEVLKAQAEGVDVTCETCTHYLYFTTDELDAIGPVVKCSPPIRDADQQAALWNHVQTGGIAFVTSDHSPCTPDLKDTTNAFEAWGGISGVQNNVDVLFDEAVQKRGLSLKQFADMIAANPADRYHLAQKGRISIGKDADFVLIKPNAPYILKAEDLEYRNKISPYIGREIGAQVIQTILRGETIYAQETGVTEAFNGVFIKNEGHHHHHH", "soluble on expression in E. coli": "soluble"}
{"sequence": "MSLQAHCEEFRVCAMCRVLRVNRSGYYAWLCSPNSERAKEDDRLLGLIKHHWLASGSVYGHRKITTDLRDLGERCSRHRVHRLMRTEGLRAQVGYGRKPRFHGGMQCKAAANLLDRQFDVTEPDTAWASDFTFIRTHEGWMYLAVVIDLFSRQVVGWAMRDRADTELVVQAVLSAVWRRKPNTGCLVHSDQGSVYTSDDWRSFLASHGLVCSMSRRGNCHDNAPVESFFGLLKRERIRRRTYPTKDAARAEVFDYIEMFYNPNRRHGSTGDLSPVEFERRYAQRGSEGHHHHHH", "soluble on expression in E. coli": "not soluble"}
{"sequence": "MSLQIQGQIVDIENKRIYSGEITIQNGKIISIIEKNHEVKNYILPGFIDAHIHIESSMLVPSEFAKIAVLHGTVATISDPHEIANVLGKKGVYYMIENGKQVPLKFHFGAPSCVPATAFETAGAIIDSEEIKELMASPDIYYLSEMMNYPGVLFDDDEVLKKIAWAKHFNKPIDGHAPGLRGEPIKKYISAGITTDHECFTYSEAQEKLSLGMKVIIREGSAAKNFEALIDLLPANYENMMFCSDDKHPDDLILGHINLLCARAVAKGIDVFKILQVACVNPVHHYKMKVGLLKKNDAADFIVVEDLVNFKVNKTYINGELVAENGQSFVENINFETPNNFNITKKKISDFEIPSLAEKIRVIEALEGQLITNEIHHNSFIKNGKLVSDIENDILKMAVVNRYQNTTPAIAFIKNFGLKKGAIASSVAHDCHNIVVVGTSDEEICNAVNLIIKNTGGICAVNGTQNKSLALPVAGIMSDKDAWETGKLYQEIDAMAKDLGSTLKAPFMTLSFMALLVIPDLKLSDKGLFSGNTFSFVDLNVEEGHHHHHH", "soluble on expression in E. coli": "soluble"}
{"sequence": "MSLQNIRFGECINSPYVKPKRVFYTERGIEKSWDVVEAHDSVSVLLFDPKKRAFVLVKQFRPAVFLKGTSGYTYELCAGIVDKPGKSLEVIAQEEILEECGYSLSIDSLERITSFYTSVGFAGSRQTLFYAEVEDSLRQGEGGGVESENIEVVHLPLLEARAFMLDEERPKTPGLLFAFMWFFERHPKNEGHHHHHH", "soluble on expression in E. coli": "soluble"}
{"sequence": "MSLQPHLICLDLDGTLLNDNKEISSYTKQVLNELQQRGHQIMIATGRPYRASQMYYHELNLTTPIVNFNGAYVHHPKDKNFKTCHEILDLGIAQNIIQGLQQYQVSNIIAEVKDYVFINNHDPRLFEGFSMGNPRIQTGNLLVHLKESPTSILIEAEESKIPEIKNMLTHFYADHIEHRRWGAPFPVIEIVKLGINKARGIEQVRQFLNIDRNNIIAFGDEDNDIEMIEYARHGVAMENGLQELKDVANNITFNNNEDGIGRYLNDFFNLNIRYYEGHHHHHH", "soluble on expression in E. coli": "soluble"}
{"sequence": "MSLQPNDITFFQRFQNDILAGRKTITIRDASESHFKAGDVLRVGRFEDDGYFCTIEVTGTSTVTLDTLNEKHAQQENMSLDELKRVIAEIYPNQTQFYVIDFKCLEGHHHHHH", "soluble on expression in E. coli": "soluble"}
